Data reported in publication PMC6272300, “Characterization of a (2R,3R)-2,3-Butanediol Dehydrogenase from Rhodococcus erythropolis WZ010” (Molecules, 2015).

What was measured:
Assay in all cases: purified protein
purified protein [1] = substrate: C[C@@H](O)[C@@H](C)O; conditions: oxidation, 0.64 mM NAD+, 50 mM CAPS pH 10.0, 45 °C (b26 prints the pH and temperature of the two directions swapped)
purified protein [2] = substrate: CC(=O)C(C)=O; type: biochemical, Rhodococcus erythropolis; conditions: reduction; 0.4 mM NADH; 50 mM PIPES pH 6.5, 55 °C (swapped); pH 6.5; 55.0 °C
purified protein [3] = substrate: NC(=O)C1=CN([C@@H]2O[C@H](COP(=O)(O)OP(=O)(O)OC[C@H]3O[C@@H](n4cnc5c(N)ncnc54)[C@H](O)[C@@H]3O)[C@@H](O)[C@H]2O)C=CC1; type: biochemical, Rhodococcus erythropolis; conditions: reduction; 50 mM diacetyl; 50 mM PIPES pH 6.5, 55 °C; pH 6.5; 55.0 °C; varied: cofactor
purified protein [4] = substrate: NC(=O)c1ccc[n+]([C@@H]2O[C@H](COP(=O)(O)OP(=O)(O)OC[C@H]3O[C@@H](n4cnc5c(N)ncnc54)[C@H](O)[C@@H]3O)[C@@H](O)[C@H]2O)c1; type: biochemical, Rhodococcus erythropolis; conditions: oxidation; 50 mM (2R,3R)-2,3-butanediol; 50 mM CAPS pH 10.0, 45 °C; pH 10.0; 45.0 °C; varied: cofactor

B1: ReBDH (Rhodococcus erythropolis PR4) (protein)
chain: MKAARFHGQKDIRIEEIPEPELRPGTVKLKVAWCGICGTDLHEYLEGPIFISAPGHPHPLSHENAPVTMGHEFSGTVEEVGEGVTDVEVGENVVVEPYFVCNECAPCKAGNYHLCTKMGFIGLAGGGGGLSEKVVVDRRWIHKIGNIPLDEAALIEPLSVAHHAVVRSGAESGNVAIVGGAGPIGLLVAAVLKGLGVTTIVTELSEARKAKALSSGVADYVIDPTTEDVKARVLELSGGIGADIGFECAGVNAVLDTMLDTVRPAGVVVNVSIWGKPATIDMQKLVLKEIDLRGTIAYVRDHEAVIKMVQDGVVDLAPFITGRIQLEELISEGFTTLIEHNDTAVKILVRS
notes: full length, 351 residues, deduced 37180 Da; N-terminal His-tag (pEASY-E1) kept, E. coli BL21(DE3), Ni-NTA; native 45 kDa monomer
Q: Which results are given for B1?
A: Km (purified protein [1]): 580 ± 50 µM; Vmax (purified protein [1]): 6.65 µmol/min/mg; kcat (purified protein [1]): 4.28 s⁻¹; kcat/Km (purified protein [1]): 7380 M⁻¹ s⁻¹; Km (purified protein [2]): 100 ± 10 µM; Vmax (purified protein [2]): 9.49 µmol/min/mg; kcat (purified protein [2]): 6.11 ± 0.14 s⁻¹; kcat/Km (purified protein [2]): 61100 ± 7650 M⁻¹ s⁻¹; Km (purified protein [3]): 80 ± 10 µM; Vmax (purified protein [3]): 8.92 µmol/min/mg; kcat (purified protein [3]): 5.73 ± 0.08 s⁻¹; kcat/Km (purified protein [3]): 71600 ± 10100 M⁻¹ s⁻¹; Km (purified protein [4]): 1040 ± 110 µM; Vmax (purified protein [4]): 16 µmol/min/mg; kcat (purified protein [4]): 10.3 ± 0.69 s⁻¹; kcat/Km (purified protein [4]): 9880 ± 1780 M⁻¹ s⁻¹
